In the experiment the target is Pin1 (UniProt Q13526). Kind of experiment: modified ELISA, plate-coated peptide. Conditions: reference: non-phosphorylated peptide T184; sites T184. For orientation: In an ELISA, binding on a coated surface is turned into a signal by an enzyme label.

With “ATF1 (activating transcription factor 1) (from UniProt P18846) phosphorylated peptide pT184”, the “binding against the reference” value is given as “stronger”.

The record behind these values is article PMC5260992.
